Data: the Immune Epitope Database (IEDB)
Blank lines part the entries; values can stand above or below the sequence they belong to.

Key:
[1] = target: HLA-A*24:03; experiment: IEDB peptide-MHC binding, purified MHC/competitive/fluorescence; filed as Kd, often an IC50 or EC50 that approximates it; ≥ and ≤ were set here for values at or beyond the usual limits of such assays
[2] = target: HLA-A*02:01; experiment: as above
[3] = target: HLA-A*02:03; experiment: as above; details: source organism: Homo sapiens
[4] = target: HLA-A*69:01; experiment: as above
[5] = target: HLA-A*02:01; experiment: IEDB peptide-MHC binding, purified MHC/competitive/fluorescence; ≥ and ≤ were set here for values at or beyond the usual limits of such assays; details: source organism: Sudan ebolavirus
[6] = target: HLA-B*08:01; experiment: as above; details: source organism: Sudan ebolavirus
[7] = target: HLA-A*02:01; experiment: IEDB peptide-MHC binding, purified MHC/direct/fluorescence; filed as Kd, often an IC50 or EC50 that approximates it; ≥ and ≤ were set here for values at or beyond the usual limits of such assays
[8] = target: HLA-A*03:01; experiment: as above
[9] = target: HLA-A*23:01; experiment: as above
[10] = target: HLA-A*24:03; experiment: as above
[11] = target: HLA-A*29:02; experiment: as above
[12] = target: HLA-A*26:01; experiment: IEDB peptide-MHC binding, purified MHC/competitive/fluorescence; filed as Kd, often an IC50 or EC50 that approximates it; ≥ and ≤ were set here for values at or beyond the usual limits of such assays
[13] = target: HLA-B*15:01; experiment: as above
[14] = target: HLA-B*15:17; experiment: as above
[15] = target: HLA-B*18:01; experiment: as above
[16] = target: HLA-B*27:03; experiment: as above
[17] = target: HLA-B*46:01; experiment: as above
[18] = target: HLA-B*51:01; experiment: as above
[19] = target: HLA-B*57:01; experiment: as above
[20] = target: HLA-A*69:01; experiment: IEDB peptide-MHC binding, purified MHC/direct/fluorescence; filed as Kd, often an IC50 or EC50 that approximates it; ≥ and ≤ were set here for values at or beyond the usual limits of such assays
[21] = target: HLA-A*02:12; experiment: as above
[22] = target: HLA-A*02:16; experiment: as above
[23] = target: HLA-A*02:19; experiment: as above
[24] = target: HLA-B*39:01; experiment: IEDB peptide-MHC binding, purified MHC/competitive/fluorescence; filed as Kd, often an IC50 or EC50 that approximates it; ≥ and ≤ were set here for values at or beyond the usual limits of such assays
[25] = target: HLA-B*58:01; experiment: as above
[26] = target: HLA-B*15:17; experiment: IEDB peptide-MHC binding, purified MHC/direct/fluorescence; filed as Kd, often an IC50 or EC50 that approximates it; ≥ and ≤ were set here for values at or beyond the usual limits of such assays
[27] = target: HLA-C*15:02; experiment: as above; details: source organism: Yellow fever virus
[28] = target: HLA-A*01:01; experiment: as above
[29] = target: HLA-A*03:01; experiment: IEDB peptide-MHC binding, purified MHC/competitive/fluorescence; filed as Kd, often an IC50 or EC50 that approximates it; ≥ and ≤ were set here for values at or beyond the usual limits of such assays; details: source organism: Vaccinia virus WR
[30] = target: HLA-B*07:02; experiment: as above; details: source organism: Vaccinia virus WR
[31] = target: HLA-B*08:01; experiment: as above
[32] = target: HLA-A*02:03; experiment: IEDB peptide-MHC binding, purified MHC/direct/fluorescence; filed as Kd, often an IC50 or EC50 that approximates it; ≥ and ≤ were set here for values at or beyond the usual limits of such assays; details: source organism: Araucaria virus
[33] = target: HLA-A*68:02; experiment: as above; details: source organism: Araucaria virus
[34] = target: HLA-C*12:03; experiment: as above; details: source organism: Foot-and-mouth disease virus C1
[35] = target: HLA-A*31:01; experiment: as above; details: source organism: Bacillus anthracis
[36] = target: HLA-B*08:01; experiment: as above; details: source organism: Bacillus cereus 03BB108
[37] = target: HLA-B*18:01; experiment: as above; details: source organism: Bacillus anthracis
[38] = target: HLA-B*27:05; experiment: as above; details: source organism: Bacillus anthracis
[39] = target: HLA-B*40:01; experiment: as above; details: source organism: Bacillus anthracis
[40] = target: HLA-B*46:01; experiment: as above; details: source organism: Bacillus anthracis
[41] = target: HLA-B*48:01; experiment: as above; details: source organism: Bacillus anthracis
[42] = target: HLA-B*57:01; experiment: as above; details: source organism: Bacillus anthracis
[43] = target: HLA-B*58:01; experiment: as above; details: source organism: Bacillus anthracis
[44] = target: HLA-A*11:01; experiment: IEDB peptide-MHC binding, purified MHC/competitive/fluorescence; filed as Kd, often an IC50 or EC50 that approximates it; ≥ and ≤ were set here for values at or beyond the usual limits of such assays; details: source organism: Bacillus anthracis str. A0389
[45] = source organism: Zaire ebolavirus
[46] = source organism: Rickettsia felis URRWXCal2
[47] = source organism: Limestone Canyon virus
[48] = source organism: Four Corners hantavirus
[49] = source organism: Araucaria virus
[50] = source organism: Rickettsia sibirica 246
[51] = source organism: Bacillus anthracis

Sequence: CYPYDVPDY
Kd ([1]; source organism: Influenza A virus): 0.223 µM

Kd ([2]; source organism: Homo sapiens): 0.0185 µM
Kd [3]: 0.00125 µM
Kd ([4]; source organism: Homo sapiens): ≥ 20 µM
Sequence: FLHSGTAKS

Sequence: FLYDRLAST
IC50 [5]: 0.887 µM
IC50 [6]: 40.6 µM
Kd [7, 45]: 0.0022 µM
Kd [8, 45]: ≥ 20 µM
Kd [9, 45]: ≥ 20 µM
Kd [10, 45]: ≥ 20 µM
Kd [11, 45]: ≥ 20 µM
Kd [12, 45]: ≥ 20 µM
Kd [4, 45]: ≥ 20 µM
Kd [13, 45]: ≥ 20 µM
Kd [14, 45]: ≥ 20 µM
Kd [15, 45]: ≥ 20 µM
Kd [16, 45]: ≥ 20 µM
Kd [17, 45]: ≥ 20 µM
Kd [18, 45]: ≥ 20 µM
Kd [19, 45]: ≥ 20 µM

Sequence: GYTVARSQL
Kd [9, 46]: 0.466 µM
Kd [10, 46]: 0.022 µM

Sequence: IYQARFMKY
Kd ([20]; source organism: Burkholderia mallei): ≥ 20 µM
Kd ([1]; source organism: Pseudomonas aeruginosa PACS2): 0.0008 µM

Sequence: KSAFYQSYL
Kd [21, 47]: ≥ 20 µM
Kd [22, 47]: ≥ 20 µM
Kd [23, 47]: ≥ 20 µM
Kd [8, 47]: ≥ 20 µM
Kd [11, 47]: ≥ 20 µM
Kd [12, 48]: ≥ 20 µM
Kd [4, 48]: ≥ 20 µM
Kd [13, 48]: ≥ 20 µM
Kd [15, 48]: ≥ 20 µM
Kd [16, 48]: ≥ 20 µM
Kd [24, 48]: ≥ 20 µM
Kd [17, 48]: ≥ 20 µM
Kd [25, 48]: 0.0021 µM

Sequence: KTNDRKWCF
Kd ([26]; source organism: Yellow fever virus 17D): 0.0266 µM
Kd [27]: 0.849 µM

Sequence: LSDLKKTIY
Kd ([28]; source organism: Cowpox virus (Brighton Red)): 0.0035 µM
Kd [29]: ≥ 20 µM
Kd [30]: ≥ 20 µM
Kd ([31]; source organism: Vaccinia virus WR): ≥ 20 µM

Sequence: LYVAGVPEL
Kd [32]: ≥ 20 µM
Kd [21, 49]: ≥ 20 µM
Kd [22, 49]: ≥ 20 µM
Kd [23, 49]: ≥ 20 µM
Kd [8, 49]: ≥ 20 µM
Kd [11, 49]: ≥ 20 µM
Kd [33]: ≥ 20 µM
Kd [2, 49]: ≥ 20 µM
Kd [1, 49]: 0.0003 µM
Kd [12, 49]: ≥ 20 µM
Kd [4, 49]: ≥ 20 µM
Kd [14, 49]: ≥ 20 µM
Kd [15, 49]: ≥ 20 µM
Kd [16, 49]: ≥ 20 µM
Kd [24, 49]: ≥ 20 µM
Kd [17, 49]: ≥ 20 µM
Kd [18, 49]: ≥ 20 µM
Kd [19, 49]: ≥ 20 µM

Sequence: MFSVYDYGF
Kd [9, 50]: 0.003 µM
Kd [10, 50]: 0.003 µM

Sequence: MTAHITVPY
Kd [34]: 0.045 µM

Sequence: QLRENAEDM
Kd ([31]; source organism: Influenza A virus (A/swine/Hong Kong/81/1978(H3N2))): 5.3 µM

Kd ([25]; source organism: Escherichia coli E22): 1.78 µM
Sequence: STVADEIAF

Sequence: VTECKLIYY
Kd [28, 51]: 0.007 µM
Kd [7, 51]: ≥ 20 µM
Kd [8, 51]: ≥ 20 µM
Kd [35]: ≥ 20 µM
Kd [20, 51]: ≥ 20 µM
Kd [36]: ≥ 20 µM
Kd [26, 51]: 0.0347 µM
Kd [37]: ≥ 20 µM
Kd [38]: ≥ 20 µM
Kd [39]: ≥ 20 µM
Kd [40]: ≥ 20 µM
Kd [41]: ≥ 20 µM
Kd [42]: ≥ 20 µM
Kd [43]: ≥ 20 µM
Kd [44]: 1.26 µM
Kd ([13]; source organism: Bacillus anthracis str. A0389): ≥ 20 µM
